The results in this text go back to PMC8617483, “Structure of the ATP synthase from Mycobacterium smegmatis provides targets for treating tuberculosis” (Proceedings of the National Academy of Sciences of the …, 2021).

To fix the notation:
B1: ATP synthase a-subunit from Mycobacterium smegmatis (natural protein, UniProt A0R206 1-252, looked up)
chain: MLAAEEGGAAIHVGHHTLVFELFGMTFNGDTILATAVTAVIVIALAFYLRAKVTSTGVPSGVQLFWEALTIQMRQQIEGSIGMKIAPFVLPLSVTIFVFILISNWLAVLPLQYGGADGAAAELYKAPASDINFVLALALFVFVCYHAAGIWRRGIVGHPIKVVKGHVAFLAPINIVEELAKPISLALRLFGNIFAGGILVALIAMFPWYIQWFPNAVWKTFDLFVGLIQAFIFSLLTILYFSQSMELDHEDH
notes: ATP synthase subunit a, M. smegmatis mc2 155, encoded in the entire atp operon; modelled in substate S1a (PDB 7NJK): 10-247; One copy in the enzyme
B2: ATP synthase β-subunit from Mycobacterium smegmatis (natural protein, UniProt A0R200 1-475, looked up)
chain: MTATAEKTAGRVVRITGPVVDVEFPRGSVPELFNALHAEITFGALAKTLTLEVAQHLGDSLVRCISMQPTDGLVRGVEVTDTGASISVPVGDGVKGHVFNALGDCLDDPGYGKDFEHWSIHRKPPAFSDLEPRTEMLETGLKVVDLLTPYVRGGKIALFGGAGVGKTVLIQEMINRIARNFGGTSVFAGVGERTREGNDLWVELADANVLKDTALVFGQMDEPPGTRMRVALSALTMAEFFRDEQGQDVLLFIDNIFRFTQAGSEVSTLLGRMPSAVGYQPTLADEMGELQERITSTRGRSITSMQAVYVPADDYTDPAPATTFAHLDATTELSRAVFSKGIFPAVDPLASSSTILDPAIVGDEHYRVAQEVIRILQRYKDLQDIIAILGIDELSEEDKQLVNRARRIERFLSQNMMAAEQFTGQPGSTVPLKETIEAFDKLTKGEFDHLPEQAFFLIGGLDDLAKKAESLGAKL
notes: ATP synthase subunit β, M. smegmatis mc2 155, encoded in the entire atp operon; modelled in substate S1a (PDB 7NJK): βE 8-471; βTP 7-475; βDP 8-475; Three copies in the enzyme (α3β3); also called βE; βTP
B3: ATP synthase c-subunit from Mycobacterium smegmatis (natural protein, UniProt A0R205 1-86, looked up)
chain: MDLDPNAIITAGALIGGGLIMGGGAIGAGIGDGIAGNALISGIARQPEAQGRLFTPFFITVGLVEAAYFINLAFMALFVFATPGLQ
notes: ATP synthase subunit c, M. smegmatis mc2 155, encoded in the entire atp operon; modelled in substate S1a (PDB 7NJK): 3-86 in all nine copies; Nine copies form the c9-ring of the rotor; in the rows with a and ε the subunit stands in that ring; also called c9-ring; c-ring
B4: ATP synthase γ-subunit from Mycobacterium smegmatis (natural protein, UniProt A0R201 1-307, looked up)
chain: MAATLRELRGRIRSAGSIKKITKAQELIATSRIAKAQARVEAARPYAAEITNMLTELAGASALDHPLLVERKQPKRAGVLVVSSDRGLCGAYNANVLRRAEELFSLLRDEGKDPVLYVVGRKALGYFSFRQRTVVESWTGFSERPTYENAREIADTLVNAFMAGADDEGDDAGADGILGVDELHIVFTEFRSMLSQTAVARRAAPMEVEYVGEVETGPRTLYSFEPDPETLFDALLPRYIATRVYAALLEAAASESASRRRAMKSATDNADDLIKALTLAANRERQAQITQEISEIVGGANALAGSK
notes: ATP synthase subunit γ, M. smegmatis mc2 155, encoded in the entire atp operon; modelled in substate S1a (PDB 7NJK): 3-213, 220-304; One copy in the enzyme
B5: ATP synthase ε-subunit from Mycobacterium smegmatis (natural protein, UniProt A0R1Z9 1-121, looked up)
chain: MADLNVEIVAVERELWSGPATFVFTRTTAGEIGILPRHIPLVAQLVDDAMVRVEREGEDDLRIAVDGGFLSVTEETVRILVENAQFESEIDADAAKEDAASDDERTAAWGRARLRALGQID
notes: ATP synthase subunit ε, M. smegmatis mc2 155, encoded in the entire atp operon; modelled in substate S1a (PDB 7NJK): 3-120; One copy in the enzyme
B6: ATP synthase bδ-subunit from Mycobacterium smegmatis (natural protein, UniProt A0R203 1-445, looked up)
chain: MSIFIGQLIGFAVIAFIIVKWVVPPVRTLMRNQQEAVRAALAESAEAAKKLADADAMHAKALADAKAESEKVTEEAKQDSERIAAQLSEQAGSEAERIKAQGAQQIQLMRQQLIRQLRTGLGAEAVNKAAEIVRAHVADPQAQSATVDRFLSELEQMAPSSVVIDTAATSRLRAASRQSLAALVEKFDSVAGGLDADGLTNLADELASVAKLLLSETALNKHLAEPTDDSAPKVRLLERLLSDKVSATTLDLLRTAVSNRWSTESNLIDAVEHTARLALLKRAEIAGEVDEVEEQLFRFGRVLDAEPRLSALLSDYTTPAEGRVALLDKALTGRPGVNQTAAALLSQTVGLLRGERADEAVIDLAELAVSRRGEVVAHVSAAAELSDAQRTRLTEVLSRIYGRPVSVQLHVDPELLGGLSITVGDEVIDGSIASRLAAAQTGLPD
notes: ATP synthase subunit bδ (natural fusion of a b-domain, a linking domain and a δ-domain), M. smegmatis mc2 155, encoded in the entire atp operon; modelled in substate S1a (PDB 7NJK): 1-162, 169-444; One copy in the enzyme; part of the peripheral stalk; also called fused bδ-subunit
B7: ATP synthase b′-subunit from Mycobacterium smegmatis with a C-terminal His10-tag (natural protein, UniProt A0R204 1-170, looked up)
chain: MGEFSATILAASQAAEEGGGGSNFLIPNGTFFAVLIIFLIVLGVISKWVVPPISKVLAEREAMLAKTAADNRKSAEQVAAAQADYEKEMAEARAQASALRDEARAAGRSVVDEKRAQASGEVAQTLTQADQQLSAQGDQVRSGLESSVDGLSAKLASRILGVDVNSGGTQ
notes: ATP synthase subunit b′, M. smegmatis mc2 155, encoded in the entire atp operon; modelled in substate S1a (PDB 7NJK): 22-166; residues 1 to 21 had no density but are present in the assembled enzyme; One copy in the enzyme; part of the peripheral stalk; No removal of the tag is told; also called b-subunit (in some sentences)

Assay in all cases: cryo-EM structure; single particles of the ATP synthase purified in detergent and inhibited with bedaquiline (25 μM); 63 maps and 27 models, resolutions 2.11 to 4.15 Å; states S1 to S3 and substates
For data set [1], the target named is B6. To be noted: both partners purified.
Data set [2] concerns the target T1, ATP synthase α-subunit from Mycobacterium smegmatis (Mycobacterium smegmatis, UniProt A0R202 1-548).
T1 construct: ATP synthase subunit α, M. smegmatis mc2 155, encoded in the entire atp operon; modelled in substate S1a (PDB 7NJK): αE 5-21, 29-406, 411-521; αTP 5-21, 29-406, 411-521; αDP 6-406, 413-521, 527-545; Three copies in the enzyme (α3β3); also called αE; αTP
The note with it: both partners purified.

Data set [3] concerns the molecule itself.
For data set [4], the target named is B1. The note with it: both partners purified.
For data set [5], the target named is B5. The note with it: both partners purified.
For data set [6], the target named is B4. To be noted: both partners purified.

T1 sequence (A0R202 whole entry): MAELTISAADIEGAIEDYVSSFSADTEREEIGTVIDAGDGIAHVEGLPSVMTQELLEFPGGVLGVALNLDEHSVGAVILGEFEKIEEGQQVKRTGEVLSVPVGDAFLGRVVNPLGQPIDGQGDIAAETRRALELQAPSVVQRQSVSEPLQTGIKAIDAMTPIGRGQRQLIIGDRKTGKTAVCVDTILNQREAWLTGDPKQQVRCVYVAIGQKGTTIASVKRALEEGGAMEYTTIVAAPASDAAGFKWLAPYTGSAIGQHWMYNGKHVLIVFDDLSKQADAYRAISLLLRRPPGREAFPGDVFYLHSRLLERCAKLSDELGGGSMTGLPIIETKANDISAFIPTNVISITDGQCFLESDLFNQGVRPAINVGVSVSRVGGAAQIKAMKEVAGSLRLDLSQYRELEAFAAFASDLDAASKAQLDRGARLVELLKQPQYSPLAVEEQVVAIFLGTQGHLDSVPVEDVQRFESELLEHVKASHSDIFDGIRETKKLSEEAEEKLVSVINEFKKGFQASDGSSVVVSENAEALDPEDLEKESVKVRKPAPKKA

As for B1, in data set [1], the binding result is reported as “binds”.

On to B2, for which, in data set [2], the binding result is “binds”.

As to B3, the “stoichiometry N” value in data set [3] is 9. Also, the binding result in data set [4] and in data set [5] was “binds” throughout.

Take B4: the binding result in data set [2] is given as “binds”.

On to B5, for which the binding result in data set [6] is reported as “binds”.

As for B6, in data set [2], the binding result is recorded as “binds”.

As to B7, the binding result in data set [1], in data set [6], in data set [4] and in data set [2] was “binds” throughout.
